Patent US20160109449A1 (JULIUS MAXIMILIANS UNIVERSITAET WUERZBURG, published 2016)

Tests used:
[1] = molecular target: IsaA oligopeptide SEQ ID NO: 10 (Staphylococcus aureus); test: peptide array on glass slide, fluorescent secondary antibody
[2] = molecular target: T1, IsaA oligopeptide SEQ ID NO: 13 (Staphylococcus aureus); test: as above
T1 sequence (peptide): TGYAAGTGHQAHAAE

[3] = molecular target: T2, IsaA oligopeptide SEQ ID NO: 14 (Staphylococcus aureus); test: as above
T2 sequence (peptide): AGTGHQAHAAEVNVD

[4] = molecular target: IsaA oligopeptide SEQ ID NO: 15 (Staphylococcus aureus); test: as above
[5] = molecular target: T3, IsaA oligopeptide SEQ ID NO: 16 (Staphylococcus aureus); test: as above
T3 sequence (peptide): AAEVNVDQAHLVDLA

[6] = molecular target: IsaA oligopeptide SEQ ID NO: 17 (Staphylococcus aureus); test: as above
[7] = molecular target: IsaA oligopeptide SEQ ID NO: 18 (Staphylococcus aureus); test: as above
[8] = molecular target: IsaA oligopeptide SEQ ID NO: 20 (Staphylococcus aureus); test: as above
[9] = molecular target: IsaA oligopeptide SEQ ID NO: 21 (Staphylococcus aureus); test: as above
[10] = molecular target: IsaA oligopeptide SEQ ID NO: 24 (Staphylococcus aureus); test: as above
[11] = molecular target: IsaA oligopeptide SEQ ID NO: 25 (Staphylococcus aureus); test: as above
[12] = molecular target: IsaA oligopeptide SEQ ID NO: 27 (Staphylococcus aureus); test: as above
[13] = molecular target: T4, IsaA oligopeptide SEQ ID NO: 28 (Staphylococcus aureus); test: as above
T4 sequence (peptide): GTTWSWSYEAANGQT

[14] = molecular target: T5, IsaA oligopeptide SEQ ID NO: 29 (Staphylococcus aureus); test: as above
T5 sequence (peptide): SWSYEAANGQTAGFS

[15] = molecular target: T6, IsaA oligopeptide SEQ ID NO: 30 (Staphylococcus aureus); test: as above
T6 sequence (peptide): EAANGQTAGFSNVAG

[16] = molecular target: T7, IsaA oligopeptide SEQ ID NO: 31 (Staphylococcus aureus); test: as above
T7 sequence (peptide): GQTAGFSNVAGADYT

[17] = molecular target: T8, IsaA oligopeptide SEQ ID NO: 36 (Staphylococcus aureus); test: as above
T8 sequence (peptide): GSDVQSVSYNAQSSN

[18] = molecular target: IsaA oligopeptide SEQ ID NO: 37 (Staphylococcus aureus); test: as above
[19] = molecular target: IsaA oligopeptide SEQ ID NO: 39 (Staphylococcus aureus); test: as above
[20] = molecular target: IsaA oligopeptide SEQ ID NO: 40 (Staphylococcus aureus); test: as above
[21] = molecular target: IsaA oligopeptide SEQ ID NO: 41 (Staphylococcus aureus); test: as above
[22] = molecular target: IsaA oligopeptide SEQ ID NO: 43 (Staphylococcus aureus); test: as above
[23] = molecular target: IsaA oligopeptide SEQ ID NO: 44 (Staphylococcus aureus); test: as above
[24] = molecular target: IsaA oligopeptide SEQ ID NO: 45 (Staphylococcus aureus); test: as above
[25] = molecular target: IsaA oligopeptide SEQ ID NO: 46 (Staphylococcus aureus); test: as above
[26] = molecular target: IsaA oligopeptide SEQ ID NO: 47 (Staphylococcus aureus); test: as above
[27] = molecular target: IsaA oligopeptide SEQ ID NO: 49 (Staphylococcus aureus); test: as above
[28] = molecular target: IsaA oligopeptide SEQ ID NO: 52 (Staphylococcus aureus); test: as above
[29] = molecular target: IsaA oligopeptide SEQ ID NO: 53 (Staphylococcus aureus); test: as above
[30] = molecular target: IsaA oligopeptide SEQ ID NO: 54 (Staphylococcus aureus); test: as above
[31] = molecular target: IsaA oligopeptide SEQ ID NO: 59 (Staphylococcus aureus); test: as above
[32] = molecular target: T9, IsaA oligopeptide SEQ ID NO: 60 (Staphylococcus aureus); test: as above
T9 sequence (peptide): GWGPTNTVDQQINAA

[33] = molecular target: IsaA oligopeptide SEQ ID NO: 61 (Staphylococcus aureus); test: as above
[34] = molecular target: IsaA oligopeptide SEQ ID NO: 62 (Staphylococcus aureus); test: as above
[35] = molecular target: IsaA oligopeptide SEQ ID NO: 64 (Staphylococcus aureus); test: as above
[36] = molecular target: IsaA oligopeptide SEQ ID NO: 9 (Staphylococcus aureus); test: as above
[37] = molecular target: T10, recombinant IsaA protein of Staphylococcus aureus (29 kDa immunodominant antigen IsaA) (Staphylococcus aureus, UniProt Q2FV52 30-233, limits assumed); test: SPR (BIACORE 2000), antibody captured on anti-mouse Fc surface, IsaA as analyte, 1:1 Langmuir fit
T10 construct: Coated as rIsaA in the ELISA; In the first SPR experiment it was N-biotinylated with sulfo-NHS-LC-biotin (mostly at a single site) and immobilised on streptavidin; In the second SPR experiment it was the analyte in solution; also called rIsaA; 29 kDa IsaA antigen
T10 sequence (looked up): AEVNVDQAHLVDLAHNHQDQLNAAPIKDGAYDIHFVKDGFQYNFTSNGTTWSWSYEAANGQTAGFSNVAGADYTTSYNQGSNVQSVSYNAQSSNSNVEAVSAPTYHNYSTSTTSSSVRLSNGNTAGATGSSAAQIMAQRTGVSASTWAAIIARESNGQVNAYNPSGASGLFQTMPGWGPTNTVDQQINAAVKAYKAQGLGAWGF
Procedure: A blank anti mouse Fc surface was used as control surface for monitoring unspecific binding and performing reference subtraction. Interaction analyses were performed using HBS-EP buffer (10 mM HEPES pH 7.4, 150 mM NaCl, 3 mM EDTA, 0.005% Tween 20). Sensorgrams were recorded at a flow rate of 30 μl/min at 25° C. Association and dissociation times were set to 3 and 15 min, respectively.
The anti-Fc capturing surfaces were regenerated after each cycle using short pulses of 10 mM glycine pH 1.7.
Affinities and rate constants for association (kₒₙ) and for dissociation (koff) were calculated using the BIAevaluation software 4.0.1 fitting the obtained sensorgrams to a 1:1 Langmuir binding model.

Molecule: control antibodies (peptide array) (antibody)
- Binding (fluorescence intensity) [1]: 160
- Binding (fluorescence intensity) [2]: 367
- Binding (fluorescence intensity) [3]: -35
- Binding (fluorescence intensity) [4]: 107
- Binding (fluorescence intensity) [5]: 117
- Binding (fluorescence intensity) [6]: 48
- Binding (fluorescence intensity) [7]: -119
- Binding (fluorescence intensity) [8]: 106
- Binding (fluorescence intensity) [9]: 182
- Binding (fluorescence intensity) [10]: 79.3
- Binding (fluorescence intensity) [11]: -61.7
- Binding (fluorescence intensity) [12]: 81
- Binding (fluorescence intensity) [13]: 77.3
- Binding (fluorescence intensity) [14]: 85.7
- Binding (fluorescence intensity) [15]: -7
- Binding (fluorescence intensity) [16]: -20
- Binding (fluorescence intensity) [17]: -14.3
- Binding (fluorescence intensity) [18]: -27.3
- Binding (fluorescence intensity) [19]: 109
- Binding (fluorescence intensity) [20]: -27
- Binding (fluorescence intensity) [21]: 29.3
- Binding (fluorescence intensity) [22]: 44.3
- Binding (fluorescence intensity) [23]: 114
- Binding (fluorescence intensity) [24]: -4.3
- Binding (fluorescence intensity) [25]: -24.3
- Binding (fluorescence intensity) [26]: 14.7
- Binding (fluorescence intensity) [27]: 40
- Binding (fluorescence intensity) [28]: -60
- Binding (fluorescence intensity) [29]: 70.3
- Binding (fluorescence intensity) [30]: -51.7
- Binding (fluorescence intensity) [31]: 132
- Binding (fluorescence intensity) [32]: 18.7
- Binding (fluorescence intensity) [33]: 30.3
- Binding (fluorescence intensity) [34]: 6.3
- Binding (fluorescence intensity) [35]: 42
- Binding (fluorescence intensity) [36]: 70

B1: monoclonal antibody MAB-UK-66 secreted by hybridoma cell line DSM ACC2987 (antibody, V domains shown)
VH: DVKLVESGGGLVKLGGSLKLSCSASGFTFSNYYMSWVRQTPEKRLELVADINGNGGSTYYPDTVKGRFTISRDNAKNTLYLQMSSLKSEDTALYYCVRRGGYYALDYWGQGTTVTVSS
VL: DVVMTQTPLSLPVSLGDQASISCRSSQSLVHINGNTYLHWYLQKPGQSPKLLIYRVSNRFSGVPDRFSGSGSGTDFTLKISRVEAEDLGVYFCSQSTHVPWTFGGGTKLELKR
notes: Monoclonal mouse antibody from a hybridoma; Detected with anti-mouse IgG; also called antibodies secreted by cell line DSM ACC2987; anti-IsaA MAB
- Binding (fluorescence intensity) [2]: 5750
- Binding (fluorescence intensity) [3]: 3190
- Binding (fluorescence intensity) [5]: 1950
- Binding (fluorescence intensity) [13]: 3170
- Binding (fluorescence intensity) [14]: 2490
- Binding (fluorescence intensity) [15]: 1670
- Binding (fluorescence intensity) [16]: 2940
- Binding (fluorescence intensity) [17]: 2740
- Binding (fluorescence intensity) [20]: 6010
- Binding (fluorescence intensity) [32]: 3070
- Kd [37]: 1.7 nM
- koff [37]: 0.00029 s⁻¹
- kon [37]: 180000 M⁻¹ s⁻¹
